Reference: paper PMC6424611

Columns and labels:
Conditions in all cases: reference: unphosphorylated peptide; sites S732
ARHGEF12 PDZ domain = ARHGEF12 PDZ domain (UniProt Q9NZN5); assay: SPR, biotin-peptide on streptavidin chip
GOPC PDZ domain = GOPC PDZ domain (UniProt Q9HD26); assay: SPR, biotin-peptide on streptavidin chip
MAST1 PDZ domain = MAST1 PDZ domain (UniProt Q9Y2H9); assay: SPR, biotin-peptide on streptavidin chip
MAST2 PDZ domain = MAST2 PDZ domain (UniProt Q6P0Q8); assay: SPR, biotin-peptide on streptavidin chip
PDZD7 PDZ domain 3 = PDZD7 PDZ domain 3 (UniProt Q9H5P4); assay: SPR, biotin-peptide on streptavidin chip
ARHGEF11 PDZ domain = ARHGEF11 PDZ domain (UniProt O15085); assay: automated holdup, biotin-peptide resin
DFNB31 PDZ domain 3 = DFNB31 PDZ domain 3 (UniProt Q9P202); assay: automated holdup, biotin-peptide resin
DLG4 PDZ domain 2 = DLG4 PDZ domain 2 (UniProt P78352); assay: automated holdup, biotin-peptide resin
GORASP1 PDZ domain = GORASP1 PDZ domain (UniProt Q9BQQ3); assay: automated holdup, biotin-peptide resin
GORASP2 PDZ domain = GORASP2 PDZ domain (UniProt Q9H8Y8); assay: automated holdup, biotin-peptide resin
GRASP PDZ domain = GRASP PDZ domain (UniProt Q7Z6J2); assay: automated holdup, biotin-peptide resin
GRID2IP PDZ domain 1 = GRID2IP PDZ domain 1 (UniProt A4D2P6); assay: automated holdup, biotin-peptide resin
HTRA1 PDZ domain = HTRA1 PDZ domain (UniProt Q92743); assay: automated holdup, biotin-peptide resin
LAP2 PDZ domain = LAP2 PDZ domain (UniProt Q96RT1); assay: automated holdup, biotin-peptide resin
LIMK2 PDZ domain = LIMK2 PDZ domain (UniProt P53671); assay: automated holdup, biotin-peptide resin
LNX1 PDZ domain 3 = LNX1 PDZ domain 3 (UniProt Q8TBB1); assay: automated holdup, biotin-peptide resin
MAGI1 PDZ domain 2 = MAGI1 PDZ domain 2 (UniProt Q96QZ7); assay: automated holdup, biotin-peptide resin
MAGI2 PDZ domain 2 = MAGI2 PDZ domain 2 (UniProt Q86UL8); assay: automated holdup, biotin-peptide resin
MAGI3 PDZ domain 2 = MAGI3 PDZ domain 2 (UniProt Q5TCQ9); assay: automated holdup, biotin-peptide resin
NHERF2 PDZ domain 2 = NHERF2 PDZ domain 2 (UniProt Q15599); assay: automated holdup, biotin-peptide resin
NHERF3 PDZ domain 1 = NHERF3 PDZ domain 1 (UniProt Q5T2W1); assay: automated holdup, biotin-peptide resin
PDZRN3 PDZ domain 1 = PDZRN3 PDZ domain 1 (UniProt Q9UPQ7); assay: automated holdup, biotin-peptide resin
PPP1R9A PDZ domain = PPP1R9A PDZ domain (UniProt Q9ULJ8); assay: automated holdup, biotin-peptide resin
PTPN3 PDZ domain = PTPN3 PDZ domain (UniProt P26045); assay: automated holdup, biotin-peptide resin
SHANK3 PDZ domain = SHANK3 PDZ domain (UniProt Q9BYB0); assay: automated holdup, biotin-peptide resin
SHROOM2 PDZ domain = SHROOM2 PDZ domain (UniProt Q13796); assay: automated holdup, biotin-peptide resin
SHROOM2 PDZ domain, sequence (Q13796 whole entry, looked up, the tested form may be a part): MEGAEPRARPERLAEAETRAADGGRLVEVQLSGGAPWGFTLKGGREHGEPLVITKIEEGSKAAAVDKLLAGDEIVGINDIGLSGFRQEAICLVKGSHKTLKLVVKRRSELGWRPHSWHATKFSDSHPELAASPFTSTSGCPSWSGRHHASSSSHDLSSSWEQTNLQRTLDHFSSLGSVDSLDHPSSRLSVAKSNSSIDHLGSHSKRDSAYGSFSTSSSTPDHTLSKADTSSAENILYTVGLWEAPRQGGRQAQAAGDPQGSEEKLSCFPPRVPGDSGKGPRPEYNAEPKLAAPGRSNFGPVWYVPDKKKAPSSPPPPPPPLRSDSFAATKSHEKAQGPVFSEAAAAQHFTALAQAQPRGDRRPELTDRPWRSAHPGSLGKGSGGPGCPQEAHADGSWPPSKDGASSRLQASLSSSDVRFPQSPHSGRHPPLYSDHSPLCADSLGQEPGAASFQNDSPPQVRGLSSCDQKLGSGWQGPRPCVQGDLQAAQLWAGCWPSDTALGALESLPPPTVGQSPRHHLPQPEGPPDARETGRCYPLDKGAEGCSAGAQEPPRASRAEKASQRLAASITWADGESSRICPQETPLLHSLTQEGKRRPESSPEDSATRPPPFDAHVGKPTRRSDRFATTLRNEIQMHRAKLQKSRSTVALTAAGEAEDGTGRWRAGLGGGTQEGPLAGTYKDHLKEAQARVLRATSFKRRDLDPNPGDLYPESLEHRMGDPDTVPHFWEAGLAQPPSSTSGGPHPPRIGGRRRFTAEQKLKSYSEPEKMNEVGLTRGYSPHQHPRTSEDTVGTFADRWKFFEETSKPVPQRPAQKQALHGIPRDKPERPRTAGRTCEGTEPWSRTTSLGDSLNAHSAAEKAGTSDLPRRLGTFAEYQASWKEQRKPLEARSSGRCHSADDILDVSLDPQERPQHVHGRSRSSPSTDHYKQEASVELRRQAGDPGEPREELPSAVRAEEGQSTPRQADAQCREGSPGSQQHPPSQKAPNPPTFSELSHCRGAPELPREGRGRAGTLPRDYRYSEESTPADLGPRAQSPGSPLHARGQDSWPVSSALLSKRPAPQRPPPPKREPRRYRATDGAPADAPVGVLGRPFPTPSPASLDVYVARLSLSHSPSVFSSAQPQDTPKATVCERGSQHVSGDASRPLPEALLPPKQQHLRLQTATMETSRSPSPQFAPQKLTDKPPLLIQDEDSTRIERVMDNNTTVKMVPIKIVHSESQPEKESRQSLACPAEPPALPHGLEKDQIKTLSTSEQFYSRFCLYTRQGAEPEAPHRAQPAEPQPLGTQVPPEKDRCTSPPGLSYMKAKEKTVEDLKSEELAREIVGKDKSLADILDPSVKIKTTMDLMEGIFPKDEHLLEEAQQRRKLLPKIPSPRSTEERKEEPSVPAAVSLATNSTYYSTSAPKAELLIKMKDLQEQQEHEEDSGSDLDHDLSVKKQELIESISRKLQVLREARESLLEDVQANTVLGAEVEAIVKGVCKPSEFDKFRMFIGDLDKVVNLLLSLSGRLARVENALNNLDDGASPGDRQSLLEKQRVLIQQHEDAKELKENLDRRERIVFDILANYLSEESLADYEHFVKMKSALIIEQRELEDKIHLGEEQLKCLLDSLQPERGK

DFNB31 PDZ domain 3, sequence (Q9P202 whole entry, looked up, the tested form may be a part): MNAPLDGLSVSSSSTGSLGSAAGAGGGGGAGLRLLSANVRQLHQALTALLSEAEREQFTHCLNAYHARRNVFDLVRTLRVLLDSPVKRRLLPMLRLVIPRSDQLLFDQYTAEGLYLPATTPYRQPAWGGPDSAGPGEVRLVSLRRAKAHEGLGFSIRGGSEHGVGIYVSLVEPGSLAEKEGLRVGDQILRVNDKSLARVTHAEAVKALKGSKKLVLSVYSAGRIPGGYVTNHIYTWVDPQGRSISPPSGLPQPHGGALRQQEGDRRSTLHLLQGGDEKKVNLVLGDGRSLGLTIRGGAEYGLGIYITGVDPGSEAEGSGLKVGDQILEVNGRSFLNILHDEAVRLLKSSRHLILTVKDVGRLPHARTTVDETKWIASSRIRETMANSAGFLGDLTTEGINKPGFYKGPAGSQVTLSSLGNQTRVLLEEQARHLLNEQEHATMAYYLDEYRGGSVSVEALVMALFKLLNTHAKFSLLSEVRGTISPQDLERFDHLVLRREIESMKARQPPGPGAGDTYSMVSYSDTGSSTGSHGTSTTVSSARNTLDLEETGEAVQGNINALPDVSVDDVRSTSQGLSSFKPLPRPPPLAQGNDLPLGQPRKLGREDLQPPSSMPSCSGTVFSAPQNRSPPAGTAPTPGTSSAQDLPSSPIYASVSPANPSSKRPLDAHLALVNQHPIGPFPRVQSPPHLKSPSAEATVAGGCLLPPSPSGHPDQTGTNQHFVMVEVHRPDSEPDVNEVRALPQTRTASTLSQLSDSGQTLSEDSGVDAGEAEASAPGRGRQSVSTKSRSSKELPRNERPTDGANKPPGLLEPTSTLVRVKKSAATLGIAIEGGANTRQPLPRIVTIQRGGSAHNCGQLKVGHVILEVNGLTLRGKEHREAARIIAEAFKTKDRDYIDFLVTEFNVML
MAGI2 PDZ domain 2, sequence (Q86UL8 whole entry, looked up, the tested form may be a part): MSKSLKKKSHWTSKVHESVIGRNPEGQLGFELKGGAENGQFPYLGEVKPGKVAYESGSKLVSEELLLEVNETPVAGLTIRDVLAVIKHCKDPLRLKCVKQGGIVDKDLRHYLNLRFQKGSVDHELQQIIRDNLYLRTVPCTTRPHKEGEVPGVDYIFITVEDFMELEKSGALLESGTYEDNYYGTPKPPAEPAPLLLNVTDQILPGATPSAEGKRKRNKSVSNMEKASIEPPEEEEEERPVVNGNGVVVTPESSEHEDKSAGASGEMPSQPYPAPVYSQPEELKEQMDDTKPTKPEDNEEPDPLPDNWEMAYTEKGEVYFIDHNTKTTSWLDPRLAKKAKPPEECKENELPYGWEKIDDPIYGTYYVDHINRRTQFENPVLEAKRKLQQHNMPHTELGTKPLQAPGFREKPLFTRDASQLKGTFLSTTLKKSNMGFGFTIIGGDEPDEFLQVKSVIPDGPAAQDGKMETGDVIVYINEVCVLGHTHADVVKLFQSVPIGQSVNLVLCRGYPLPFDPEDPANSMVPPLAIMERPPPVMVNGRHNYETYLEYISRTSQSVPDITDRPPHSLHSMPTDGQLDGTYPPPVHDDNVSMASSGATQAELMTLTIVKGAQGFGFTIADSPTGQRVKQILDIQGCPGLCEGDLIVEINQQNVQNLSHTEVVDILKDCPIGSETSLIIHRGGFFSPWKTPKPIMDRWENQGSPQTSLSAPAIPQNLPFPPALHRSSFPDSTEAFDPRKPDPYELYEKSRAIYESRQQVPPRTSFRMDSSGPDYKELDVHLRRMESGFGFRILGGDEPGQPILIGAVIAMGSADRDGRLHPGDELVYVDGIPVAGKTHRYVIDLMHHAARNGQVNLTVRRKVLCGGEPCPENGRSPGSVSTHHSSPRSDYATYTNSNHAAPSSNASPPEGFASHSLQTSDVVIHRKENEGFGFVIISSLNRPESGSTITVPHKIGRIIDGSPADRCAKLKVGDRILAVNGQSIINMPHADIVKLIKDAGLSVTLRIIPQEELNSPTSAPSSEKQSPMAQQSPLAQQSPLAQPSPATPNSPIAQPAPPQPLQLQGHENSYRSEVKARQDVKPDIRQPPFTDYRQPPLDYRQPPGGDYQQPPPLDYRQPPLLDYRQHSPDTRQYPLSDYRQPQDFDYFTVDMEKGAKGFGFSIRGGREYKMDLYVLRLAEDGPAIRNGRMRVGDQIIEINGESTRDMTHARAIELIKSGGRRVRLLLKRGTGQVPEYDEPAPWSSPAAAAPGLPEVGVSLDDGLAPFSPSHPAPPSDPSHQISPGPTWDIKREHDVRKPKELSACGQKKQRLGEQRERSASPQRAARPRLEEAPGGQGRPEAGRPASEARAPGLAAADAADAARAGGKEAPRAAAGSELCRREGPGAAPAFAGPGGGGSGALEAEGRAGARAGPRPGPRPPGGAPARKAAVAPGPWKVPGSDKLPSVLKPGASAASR
PPP1R9A PDZ domain, sequence (Q9ULJ8 whole entry, looked up, the tested form may be a part): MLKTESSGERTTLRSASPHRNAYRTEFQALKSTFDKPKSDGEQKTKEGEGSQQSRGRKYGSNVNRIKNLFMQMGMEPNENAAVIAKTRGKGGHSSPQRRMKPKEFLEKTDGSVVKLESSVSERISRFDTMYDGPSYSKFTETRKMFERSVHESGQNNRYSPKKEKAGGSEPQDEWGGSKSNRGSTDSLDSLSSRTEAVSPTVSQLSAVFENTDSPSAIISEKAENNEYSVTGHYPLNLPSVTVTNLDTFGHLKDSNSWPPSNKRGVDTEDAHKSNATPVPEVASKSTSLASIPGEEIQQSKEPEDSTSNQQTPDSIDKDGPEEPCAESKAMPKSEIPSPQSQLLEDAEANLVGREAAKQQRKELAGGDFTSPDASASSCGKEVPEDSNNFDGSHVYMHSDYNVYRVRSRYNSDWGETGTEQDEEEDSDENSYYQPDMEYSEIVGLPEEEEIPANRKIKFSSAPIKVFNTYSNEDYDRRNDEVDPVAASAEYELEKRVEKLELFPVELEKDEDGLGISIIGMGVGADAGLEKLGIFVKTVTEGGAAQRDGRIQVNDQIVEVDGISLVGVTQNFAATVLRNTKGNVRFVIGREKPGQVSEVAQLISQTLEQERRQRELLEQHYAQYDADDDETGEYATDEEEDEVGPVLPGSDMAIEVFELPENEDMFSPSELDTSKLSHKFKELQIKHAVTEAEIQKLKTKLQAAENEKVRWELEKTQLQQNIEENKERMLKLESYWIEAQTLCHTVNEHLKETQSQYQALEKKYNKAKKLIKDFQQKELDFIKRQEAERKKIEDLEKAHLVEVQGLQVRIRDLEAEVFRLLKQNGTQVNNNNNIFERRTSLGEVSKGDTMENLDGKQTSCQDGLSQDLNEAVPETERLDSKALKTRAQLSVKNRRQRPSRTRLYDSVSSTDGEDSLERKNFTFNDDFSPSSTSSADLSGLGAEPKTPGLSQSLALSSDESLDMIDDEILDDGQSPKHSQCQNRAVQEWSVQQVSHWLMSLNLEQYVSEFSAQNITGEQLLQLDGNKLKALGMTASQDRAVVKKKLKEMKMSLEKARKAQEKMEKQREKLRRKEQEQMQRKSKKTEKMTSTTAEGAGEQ

Substance: RSK1 (ribosomal S6 kinase 1) 725-735 (from UniProt Q15418) pS732 peptide
- KD (ARHGEF12 PDZ domain): lost; reference 2.79 ± 0.11
- KD (GOPC PDZ domain): weaker; reference 8.92 ± 0.44
- KD (MAST1 PDZ domain): weaker; reference 20 ± 1
- KD (MAST2 PDZ domain): weaker; reference 7.02 ± 0.27
- KD (PDZD7 PDZ domain 3): weaker; reference 6.2 ± 0.9
- other: holdup binding intensity (BI) (ARHGEF11 PDZ domain): lost; reference 0.28 ± 0.06
- other: holdup binding intensity (BI) (DFNB31 PDZ domain 3): lost; reference 0.23 ± 0.04
- other: holdup binding intensity (BI) (DLG4 PDZ domain 2): gained; reference 0.11 ± 0.03
- other: holdup binding intensity (BI) (GORASP1 PDZ domain): gained; reference 0.01 ± 0.02
- other: holdup binding intensity (BI) (GORASP2 PDZ domain): weaker; reference 0.41 ± 0.02
- other: holdup binding intensity (BI) (GRASP PDZ domain): lost; reference 0.29 ± 0.01
- other: holdup binding intensity (BI) (GRID2IP PDZ domain 1): gained; reference 0.06 ± 0.02
- other: holdup binding intensity (BI) (HTRA1 PDZ domain): weaker; reference 0.44 ± 0.03
- other: holdup binding intensity (BI) (LAP2 PDZ domain): gained; reference −0.02 ± 0.05
- other: holdup binding intensity (BI) (LIMK2 PDZ domain): gained; reference 0.01 ± 0.06
- other: holdup binding intensity (BI) (LNX1 PDZ domain 3): gained; reference 0.04 ± 0.02
- other: holdup binding intensity (BI) (MAGI1 PDZ domain 2): weaker; reference 0.43 ± 0.02
- other: holdup binding intensity (BI) (MAGI2 PDZ domain 2): weaker; reference 0.42 ± 0.01
- other: holdup binding intensity (BI) (MAGI3 PDZ domain 2): same; reference 0.28 ± 0.03
- other: holdup binding intensity (BI) (NHERF2 PDZ domain 2): lost; reference 0.20 ± 0.04
- other: holdup binding intensity (BI) (NHERF3 PDZ domain 1): lost; reference 0.41 ± 0.01
- other: holdup binding intensity (BI) (PDZRN3 PDZ domain 1): stronger; reference 0.26 ± 0.01
- other: holdup binding intensity (BI) (PPP1R9A PDZ domain): gained; reference 0.00 ± 0.02
- other: holdup binding intensity (BI) (PTPN3 PDZ domain): gained; reference 0.05 ± 0.02
- other: holdup binding intensity (BI) (SHANK3 PDZ domain): lost; reference 0.27 ± 0.03
- other: holdup binding intensity (BI) (SHROOM2 PDZ domain): gained; reference 0.00 ± 0.01
